Assay results reported in paper PMC5591277, “Usb1 controls U6 snRNP assembly through evolutionarily divergent cyclic phosphodiesterase activities”.

Tests used:
Lsm2-8 complex [1] = molecular target: T1, Lsm2-8 complex (Saccharomyces cerevisiae, UniProt P38203;P57743;P40070;P40089;Q06406;P53905;P47093 …); assay: fluorescence polarization; Hill 1.6; EMSA: 5 nM Cy3-U6, 100 mM KCl, 20% sucrose, 20 mM bis-tris/10 mM HCl, 1 mM EDTA, 1 mM TCEP, 0.01% Triton X-100, 0.1 mg/mL tRNA, 0.01 mg/mL heparin, 0.1 mg/mL BSA, room temp 20 min (gel 4 C); FP: 0.25-1 nM FAM-RNA, 100 mM NaCl, 20 mM bis-tris/10 mM HCl, 1 mM TCEP, 5% glycerol, 1 mM EDTA, yeast tRNA, BSA; conditions: protein: recombinant; tags: His on Lsm8 and GST on Lsm6, removed by TEV; copies: 1;1;1;1;1;1;1; label: 5' 6-FAM
T1 sequence 1: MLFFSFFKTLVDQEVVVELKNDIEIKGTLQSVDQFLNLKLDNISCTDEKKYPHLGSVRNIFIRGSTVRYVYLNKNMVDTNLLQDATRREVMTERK
T1 sequence 2: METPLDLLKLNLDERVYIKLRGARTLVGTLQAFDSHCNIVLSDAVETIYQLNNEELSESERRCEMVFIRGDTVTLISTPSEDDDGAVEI
T1 sequence 3: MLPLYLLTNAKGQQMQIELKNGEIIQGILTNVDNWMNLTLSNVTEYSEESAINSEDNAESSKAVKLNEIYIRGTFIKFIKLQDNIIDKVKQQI
T1 sequence 4: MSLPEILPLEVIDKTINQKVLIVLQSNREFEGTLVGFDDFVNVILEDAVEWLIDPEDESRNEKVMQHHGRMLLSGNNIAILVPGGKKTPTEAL
T1 sequence 5: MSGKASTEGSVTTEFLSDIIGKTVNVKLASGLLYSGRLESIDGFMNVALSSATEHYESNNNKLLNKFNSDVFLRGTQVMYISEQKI
T1 sequence 6: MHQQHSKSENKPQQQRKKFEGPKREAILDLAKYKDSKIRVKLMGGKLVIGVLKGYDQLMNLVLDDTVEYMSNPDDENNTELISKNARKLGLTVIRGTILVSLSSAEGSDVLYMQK
T1 sequence 7: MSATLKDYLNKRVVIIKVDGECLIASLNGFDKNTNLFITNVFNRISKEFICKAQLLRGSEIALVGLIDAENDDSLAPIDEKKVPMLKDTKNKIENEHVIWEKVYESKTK

Lhp1 (yeast La protein) [2] = molecular target: T2, Lhp1 (yeast La protein) (Saccharomyces cerevisiae, UniProt P33399 1-275); assay: fluorescence polarization; Hill 1.27; EMSA: 5 nM Cy3-U6, 100 mM KCl, 20% sucrose, 20 mM bis-tris/10 mM HCl, 1 mM EDTA, 1 mM TCEP, 0.01% Triton X-100, 0.1 mg/mL tRNA, 0.01 mg/mL heparin, 0.1 mg/mL BSA, room temp 20 min (gel 4 C); FP: 0.25-1 nM FAM-RNA, 100 mM NaCl, 20 mM bis-tris/10 mM HCl, 1 mM TCEP, 5% glycerol, 1 mM EDTA, yeast tRNA, BSA; conditions: protein: recombinant; tags: N-terminal His8-TEV; label: 5' 6-FAM
T2 sequence: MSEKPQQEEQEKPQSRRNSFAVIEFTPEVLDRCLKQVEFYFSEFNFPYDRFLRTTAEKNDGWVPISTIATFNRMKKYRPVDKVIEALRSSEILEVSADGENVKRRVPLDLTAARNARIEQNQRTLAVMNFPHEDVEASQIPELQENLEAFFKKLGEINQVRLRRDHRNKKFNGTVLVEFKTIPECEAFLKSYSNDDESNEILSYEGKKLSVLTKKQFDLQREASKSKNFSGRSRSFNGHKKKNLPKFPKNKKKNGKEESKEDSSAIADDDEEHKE

Lsm2-8 complex [3] = molecular target: T1, Lsm2-8 complex; assay: fluorescence polarization; Hill 1.3; EMSA: 5 nM Cy3-U6, 100 mM KCl, 20% sucrose, 20 mM bis-tris/10 mM HCl, 1 mM EDTA, 1 mM TCEP, 0.01% Triton X-100, 0.1 mg/mL tRNA, 0.01 mg/mL heparin, 0.1 mg/mL BSA, room temp 20 min (gel 4 C); FP: 0.25-1 nM FAM-RNA, 100 mM NaCl, 20 mM bis-tris/10 mM HCl, 1 mM TCEP, 5% glycerol, 1 mM EDTA, yeast tRNA, BSA; conditions: protein: recombinant; tags: His on Lsm8 and GST on Lsm6, removed by TEV; copies: 1;1;1;1;1;1;1; label: 5' 6-FAM
Lsm2-8 complex [4] = molecular target: T1, Lsm2-8 complex; assay: fluorescence polarization; Hill 1.0; EMSA: 5 nM Cy3-U6, 100 mM KCl, 20% sucrose, 20 mM bis-tris/10 mM HCl, 1 mM EDTA, 1 mM TCEP, 0.01% Triton X-100, 0.1 mg/mL tRNA, 0.01 mg/mL heparin, 0.1 mg/mL BSA, room temp 20 min (gel 4 C); FP: 0.25-1 nM FAM-RNA, 100 mM NaCl, 20 mM bis-tris/10 mM HCl, 1 mM TCEP, 5% glycerol, 1 mM EDTA, yeast tRNA, BSA; conditions: protein: recombinant; tags: His on Lsm8 and GST on Lsm6, removed by TEV; copies: 1;1;1;1;1;1;1; label: 5' 6-FAM
Lhp1 (yeast La protein) [5] = molecular target: T2, Lhp1 (yeast La protein); assay: fluorescence polarization; Hill 1.11; EMSA: 5 nM Cy3-U6, 100 mM KCl, 20% sucrose, 20 mM bis-tris/10 mM HCl, 1 mM EDTA, 1 mM TCEP, 0.01% Triton X-100, 0.1 mg/mL tRNA, 0.01 mg/mL heparin, 0.1 mg/mL BSA, room temp 20 min (gel 4 C); FP: 0.25-1 nM FAM-RNA, 100 mM NaCl, 20 mM bis-tris/10 mM HCl, 1 mM TCEP, 5% glycerol, 1 mM EDTA, yeast tRNA, BSA; conditions: protein: recombinant; tags: N-terminal His8-TEV; label: 5' 6-FAM

B1: U6 95-112 3'OH (ssRNA)
RNA: AGAGAUUUAUUUCGUUUU
modifications: 2',3'-cis-diol end
- Kd (Lsm2-8 complex [1]): 85 ± 1 nM
- Kd (Lhp1 (yeast La protein) [2]): 43 ± 1 nM

B2: U6 95-112 3'P (ssRNA)
RNA: AGAGAUUUAUUUCGUUUU
modifications: 3' phosphate
- Kd (Lsm2-8 complex [3]): 10 ± 1 nM

B3: U6 95-112+1U 3'P (ssRNA)
RNA: AGAGAUUUAUUUCGUUUUU
modifications: 3' phosphate
- Kd (Lsm2-8 complex [4]): 3 ± 1 nM

B4: U6 95-112+1U 3'OH (ssRNA)
RNA: AGAGAUUUAUUUCGUUUUU
modifications: 2',3'-cis-diol end
- Kd (Lsm2-8 complex [4]): 17 ± 1 nM
- Kd (Lhp1 (yeast La protein) [5]): 29 ± 1 nM
